# Results taken from US5599789A, “Method for the treatment of tumours and sarcomas” (Amrad Corporation Limited, priority 1991, dated 1997).
# Tests used:
# Type in all cases: cell-based, human
# [1] = system: Ewing's Sarcoma cell line Al-8; experiment: Colony formation in semi-solid agar cultures, Al-8 cells; settings: Al-8, 1,000 cells; stimulus 100 ng; mean of duplicate colony counts, day 18
# Protocol: (§1) Tumour cells obtained from biopsy and bone marrow specimens from patients with Ewing's Sarcoma were used in these studies. Approval for this project has been obtained from the Ethics Committee of the Royal Children's Hospital.
# (§2) Single cell suspensions of tumour cells were obtained by mechanical disruption with an 18G or 21G needle or by pipetting, followed by incubation with dispase II (Boehringer) at a concentration of 1.2 units per ml for 10 minutes at 37° C. Prior to the addition to agar-medium the cells were vortexed gently to prevent clumping.
# (§3) Clonal cell lines were grown in Iscove's Modified Dulbecco's Medium (IMDM) supplemented with 10% v/v foetal calf serum (FCS; CSL Limited, Melbourne, Australia) and were passaged either weekly or twice weekly. The characteristics of the Ewing Sarcoma cell lines used herein as described below:
# (§4) Cell lines derived from the above primary cell lines (Al and Cu) are identified by an Arabic numeral (e.g. Al-1, Al-5, Al-8 or Cu-1).
# (§5) The tumour cells were immobilised in 0.3% w/v agar containing Iscove's Modified Dulbecco's Medium (IMDM) and 10% v/v FCS. […] Cultures were scored for the presence of colonies (>40 cells) or clusters (<40 cells). The number of cells plated per culture ranged from 500 to 10,000 per ml. Colonies were counted on an Olympus dissecting microscope. […]
# [2] = system: Ewing's Sarcoma cell line Al (uncloned); experiment: Colony formation in semi-solid agar cultures, Al (uncloned) cells; settings: Al(uncloned), 5,000 cells; stimulus 100 ng; mean of duplicate colony counts, day 18
# Protocol: as §1, §2, §3
# The tumour cells were immobilised in 0.3% w/v agar containing Iscove's Modified Dulbecco's Medium (IMDM) and 10% v/v FCS. […] Cultures were scored for the presence of colonies (>40 cells) or clusters (<40 cells). The number of cells plated per culture ranged from 500 to 10,000 per ml. Colonies were counted on an Olympus dissecting microscope.
# IL-1, IL-3, IL-4, IL-6, M-CSF, G-CSF, GM-CSF, Stem Cell Factor (SCF), TNFα, TGFα, TGFβ, EGF, aFGF, bFGF, NGF, IGF I, IGF II, PDGF and IFN-γ. […]
# [3] = system: Ewing's Sarcoma cell line Al-1; experiment: Colony formation in semi-solid agar cultures, Al-1 cells; settings: stimulus 100 ng, mean of duplicate colony counts, day 18
# Protocol: as §1, §2, §3, §4, §5
# [4] = system: Ewing's Sarcoma cell line Cu-1; experiment: Colony formation in semi-solid agar cultures, Cu-1 cells; settings: Cu-1, 10,000 cells; stimulus 100 ng; mean of duplicate colony counts, day 18
# Protocol: as §1, §2, §3, §4, §5
molecule,measurement,setting,value
"EGF: commercially available growth factor (protein, UniProt P01133 23-1207, looked up, Pro-epidermal growth factor) Pro-epidermal growth factor: PQHWSCPEGTLAGNGNSTCVGPAPFLIFSHGNSIFRIDTEGTNYEQLVVDAGVSVIMDFHYNEKRIYWVDLERQLLQRVFLNGSRQERVCNIEKNVSGMAINWINEEVIWSNQQEGIITVTDMKGNNSHILLSALKYPANVAVDPVERFIFWSSEVAGSLYRADLDGVGVKALLETSEKITAVSLDVLDKRLFWIQYNREGSNSLICSCDYDGGSVHISKHPTQHNLFAMSLFGDRIFYSTWKMKTIWIANKHTGKDMVRINLHSSFVPLGELKVVHPLAQPKAEDDTWEPEQKLCKLRKGNCSSTVCGQDLQSHLCMCAEGYALSRDRKYCEDVNECAFWNHGCTLGCKNTPGSYYCTCPVGFVLLPDGKRCHQLVSCPRNVSECSHDCVLTSEGPLCFCPEGSVLERDGKTCSGCSSPDNGGCSQLCVPLSPVSWECDCFPGYDLQLDEKSCAASGPQPFLLFANSQDIRHMHFDGTDYGTLLSQQMGMVYALDHDPVENKIYFAHTALKWIERANMDGSQRERLIEEGVDVPEGLAVDWIGRRFYWTDRGKSLIGRSDLNGKRSKIITKENISQPRGIAVHPMAKRLFWTDTGINPRIESSSLQGLGRLVIASSDLIWPSGITIDFLTDKLYWCDAKQSVIEMANLDGSKRRRLTQNDVGHPFAVAVFEDYVWFSDWAMPSVMRVNKRTGKDRVRLQGSMLKPSSLVVVHPLAKPGADPCLYQNGGCEHICKKRLGTAWCSCREGFMKASDGKTCLALDGHQLLAGGEVDLKNQVTPLDILSKTRVSEDNITESQHMLVAEIMVSDQDDCAPVGCSMYARCISEGEDATCQCLKGFAGDGKLCSDIDECEMGVPVCPPASSKCINTEGGYVCRCSEGYQGDGIHCLDIDECQLGEHSCGENASCTNTEGGYTCMCAGRLSEPGLICPDSTPPPHLREDDHHYSVRNSDSECPLSHDGYCLHDGVCMYIEALDKYACNCVVGYIGERCQYRDLKWWELRHAGHGQQQKVIVVAVCVVVLVMLLLLSLWGAHYYRTQKLLSKNPKNPYEESSRDVRSRRPADTEDGMSSCPQPWFVVIKEHQDLKNGGQPVAGEDGQAADGSMQPTSWRQEPQLCGMGTEQGCWIPVSSDKGSCPQVMERSFHMPSYGTQTLEGGVEKPHSLLSANPLWQQRALDPPHQMELTQ",Colonies/Cultures,[1],68
same,Colonies/Cultures,[2],258
same,Colonies/Cultures,"[3]; Al-1, 1,000 cells",41
same,Colonies/Cultures,"[3]; Al-1, 10,000 cells",685
same,Colonies/Cultures,[4],430
